Measured values reported in PMC10572585.

System: MBP-CPEB
Test: EMSA
Conditions: 10 mM HEPES-KOH pH 7.9, 50 mM KCl, 1 mM MgCl2, 0.1 mM ZnCl2, 0.1% NP-40, 1 mM DTT, 2 ug yeast tRNA, 2 ug BSA, 12 U RNaseOUT, 10 uL, 15 fmol RNA, room …

Substance: c-myc 3'UTR pA2 wild type (cCPE + ncCPE1 + ncCPE2)
- Kd (two CPEB molecules bound (second shift)): 279 nM

Substance: c-myc pA2 cCPE only (ncCPE1 and ncCPE2 mutated)
- Kd: 212 nM

Substance: c-myc pA2 ncCPE1 only (cCPE and ncCPE2 mutated)
- Kd: 890 nM

Substance: c-myc pA2 ncCPE1/2 (cCPE mutated)
- Kd (no second CPEB binding): 891 nM

Substance: c-myc pA2 ncCPE2 only (cCPE and ncCPE1 mutated)
- Kd (low affinity, Kd lower bound): > 1000 nM
